The test system of this test is isolation reared animals. The experiment in a line: Prepulse inhibition of startle in isolation reared animals (ICV midkine). The format is in vivo, male Wistar rats. To be noted: isolation reared rats, four daily ICV injections of midkine 2 μg/day, compared to vehicle-treated animals. As to the method:
Isolation-reared animals (isolated animals) were housed singly in non-soft bottom cages (22.5 cm×34.5 cm×17 cm), from time of weaning (postnatal day 25, P25) until completion of behavioral testing. A standard 12 hour light/dark cycle was observed and food and water was provided ad libitum. Noise and visual stimuli were kept to an absolute minimum as described previously by Geyer et al., 1993. Socially reared animals (social animals) were housed in groups of 4 from time of weaning until surgical implantation of a guide cannula on P80, there after they were housed singly. […] The startle apparatus consisted of a sound attenuating chamber (54.6×50.8×30.5 cm), a startle platform which measured the startle response, and an audio stimulator, controlled by the startle reflex software (MED Associates Inc.). […] The resulting movement of the rats was measured during 100 ms after startle stimulus onset, and then rectified, amplified and analyzed by computer and the maximal response and average response over the 100 ms period determined. Baseline startle amplitude was determined as the mean response of all startle trials. The percent prepulse inhibition was determined according to the following formula: 100-([startle amplitude at prepulse trial/startle amplitude at startle trial]×100%). The effect on baseline startle amplitude was analyzed by a one-way analysis of variance (ANOVA). […]

“Also recorded” adds a separate entry of the source.

B1: midkine (protein, UniProt P21741 21-143, looked up)
Midkine: VAKKKDKVKKGGPGSECAEWAWGPCTPSSKDCGVGFREGTCGAQTQRIRCRVPCNWKKEFGADCKYKFENWGACDGGTGTKVRQGTLKKARYNAQCQETIRVTKPCTPKTKAKAKAKKGKGKD
On to B1, for which the “prepulse inhibition (PPI) of startle” value is “reverses the deficit observed in prepulse inhibition of startle; also recorded: reversed PPI behavior back to normal”. In addition, the “prepulse inhibition (PPI) of startle” value (listed as Midkine) is given as “reversed the deficit observed in prepulse inhibition of startle; also recorded: reversed PPI behavior back to normal”.

The values are drawn from US20110136738A1, “Alternatively Transcribed Genes Associated with Schizophrenia” (University College Dublin, National University of Ireland, …, priority 2008, published 2011).
